The term Kd denotes the free concentration of one partner at which half of the binding sites on the other are occupied at equilibrium, for simple one-to-one binding.

Common to all, as to settings: protein: commercial
For data set [1], the target named is T1, MUC16 antigen (CA125) (UniProt Q8WXI7 1-14451). The experiment in a line: SPR; 310 K (37 C), pH 7.2; SPR, pH 7.2, 25 C (also 37 and 42 C); 1X PBS with 1 mM MgCl2 given as flow buffer for aptamer immobilization; surface blocked with 0.1% BSA.
Data set [2] has as its target T1, MUC16 antigen (CA125). The experiment in a line: SPR; 315 K (42 C), pH 7.2; SPR, pH 7.2, 25 C (also 37 and 42 C); 1X PBS with 1 mM MgCl2 given as flow buffer for aptamer immobilization; surface blocked with 0.1% BSA. On the technique in general: Surface plasmon resonance follows binding to a sensor surface in real time, without labels.
The target of data set [3] is T1, MUC16 antigen (CA125). The experiment in a line: SPR; 25 C, pH 7.2; kon 2.55e4 M-1 s-1, koff 1.01e-3 s-1; SPR, pH 7.2, 25 C (also 37 and 42 C); 1X PBS with 1 mM MgCl2 given as flow buffer for aptamer immobilization; surface blocked with 0.1% BSA.

B1: anti-MUC16 aptamer (ssDNA)
DNA: CTCACTATAGGGAGACAAGAATAAACGCTCAA
modifications: 3'-C6 amine
In the case of B1, the dissociation constant (Kd) with MUC16 antigen (CA125) [1] came to 101 nM; with MUC16 antigen (CA125) [2] it was 1340 nM; with MUC16 antigen (CA125) [3], 39 nM.

Source of the values: paper PMC11347734, “Ultrasensitive Quantification of MUC16 Antigen/Amine-Terminated Aptamer Interaction by Surface Plasmon Resonance: Kinetic and Thermodynamic Studies”.
